According to publication PMC5700373, “Repression of YdaS Toxin Is Mediated by Transcriptional Repressor RacR in the Cryptic rac Prophage of Escherichia coli K-12”:

B1: 49-bp region upstream of ydaS (dsDNA)
DNA 1: CGAATGAACTCCAAAAACACACAGAAATATTAGGCGACGCCTAACGCAA
DNA 2: TTGCGTTAGGCGTCGCCTAATATTTCTGTGTGTTTTTGGAGTTCATTCG

Columns and labels:
[1] = biological target: T1, RacR (Escherichia coli K-12) (UniProt P76062); assay: EMSA; conditions: EMSA: 10x buffer 100 mM Tris pH 8, 10 mM EDTA, 1 M NaCl, 1 mM DTT, 50% glycerol, 0.1 mg/ml BSA (presumably 1x final), room temperature 1 h, SYBR green stain. …
T1 sequence: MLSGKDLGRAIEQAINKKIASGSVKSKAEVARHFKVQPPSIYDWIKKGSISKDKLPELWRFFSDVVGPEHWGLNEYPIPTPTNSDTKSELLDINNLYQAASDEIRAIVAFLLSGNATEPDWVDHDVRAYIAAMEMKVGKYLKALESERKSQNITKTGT

RacR = biological target: T2, RacR (Escherichia coli K-12, UniProt P76062 1-158); assay: EMSA; 23.5 nM DNA, RacR up to 67.5 nM; single complex; EMSA: 10x buffer 100 mM Tris pH 8, 10 mM EDTA, 1 M NaCl, 1 mM DTT, 50% glycerol, 0.1 mg/ml BSA (presumably 1x final), room temperature 1 h, SYBR green stain. TSA: 50 mM Tris pH 8.5, 500 mM NaCl, 5% glycerol, 20-95 C; conditions: protein: recombinant; tags: C-terminal His (pET28a); chain copies: 2; blunt
T2 sequence: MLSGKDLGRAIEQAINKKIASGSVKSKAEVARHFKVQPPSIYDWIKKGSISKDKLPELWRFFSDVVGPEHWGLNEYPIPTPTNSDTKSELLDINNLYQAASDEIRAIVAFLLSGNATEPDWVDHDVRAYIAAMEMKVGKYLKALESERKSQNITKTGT

Row | Molecule | binding [1] | binding result (RacR)
1 | TGCTTAATATTCTCCTATGCGCATTACATTAGGCAATCCCTACCCTTACTGCATTAGGCACAGCCTATTGACAATTGCGTTAGGCGTCGCCTAATATTTCTGTGTGTTTTTGGAGTTCATTCG (double strand) [123-bp racR-ydaS IGR] | binds | –
2 | B1 | – | binds
